In US20190248901A1 (NOVELOGICS BIOTECHNOLOGY, published 2019):

Tests used:
[1] = biological target: soluble MICB (sMICB) shed from prostate cancer DU-145 cells (human) (UniProt Q29980); experiment: subtractive immunoprecipitation from DU-145 conditioned medium with antibody on Protein G beads, remaining sMICB by MICB ELISA, against isotype controls
[2] = biological target: recombinant extracellular alpha-3 domain of MICA (allele 001), His-tagged, Baculovirus/Sf9 expressed (human) (UniProt Q29983); experiment: Bio-Layer Interferometry (Octet RED96), antibody captured by anti-mouse IgG, antigen in solution, pH 7.4, 1:1 model
[3] = biological target: T1, recombinant extracellular alpha-3 domain of MICA (allele 001), His-tagged, Baculovirus/Sf9 expressed (human, UniProt Q29983 205-297); experiment: as above
T1 construct: also called MICA alpha-3 recombinant antigen; alpha-3 domain MICA immunogen
T1 sequence: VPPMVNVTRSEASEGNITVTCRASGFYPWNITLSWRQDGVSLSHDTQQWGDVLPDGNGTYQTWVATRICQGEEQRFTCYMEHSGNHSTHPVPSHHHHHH
Protocol: Biomolecular interactions between MICA alpha-3 recombinant antigen and test antibody were directly measured by Bio-Layer Interferometry (BLI) using a Pall ForteBio Octet RED96 machine (Pall ForteBio, CA, USA). Real-time kinetic analyses were performed on the test MICA monoclonal antibody 5C9, as well as two control antibodies, one of which could bind the alpha-3 MICA subdomain antigen (positive control) and one of which could not (negative control), as previously determined by ELISA. The Octet RED96 apparatus operates under the principle of Bio-Layer Interferometry, a label-free technique that measures molecular interactions and complex formation. A key component of the technique is the optical biosensor whose tip is immersed in the fluids of the test well and then used to assay interference patterns between waves of light. Here, the ligand (monoclonal antibody) is localized to the surface of the biosensor through capture by previously bound anti-mouse IgG, while the analyte biomolecule (antigen) is kept in solution. Binding responses between ligand and analyte were measured and reported in real-time. Both association and dissociation kinetics were monitored and KD values were calculated. This model assumed a 1:1 interaction of ligand to analyte.

soluble MICB (sMICB) shed from prostate cancer DU-145 cells (human), sequence (Q29980 23-309): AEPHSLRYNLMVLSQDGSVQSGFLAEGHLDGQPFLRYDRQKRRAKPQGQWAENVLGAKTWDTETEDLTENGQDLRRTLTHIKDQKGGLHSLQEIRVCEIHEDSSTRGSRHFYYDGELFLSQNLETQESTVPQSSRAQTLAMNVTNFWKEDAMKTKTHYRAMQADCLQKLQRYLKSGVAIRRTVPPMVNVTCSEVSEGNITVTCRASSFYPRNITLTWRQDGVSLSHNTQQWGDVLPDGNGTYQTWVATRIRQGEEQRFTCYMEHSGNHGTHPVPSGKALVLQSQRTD

BAMO3, MIC alpha-3 specific murine IgG2a monoclonal antibody (MBL International)
reduction of the amount of sMICB in the sample [1]: 83%
Kd [2]: 6 nM

negative control antibody of the Bio-Layer Interferometry analysis
Kd [2]: 9600 nM

B1: monoclonal antibody 5C9 (antibody, V domains shown)
VH: QVQLQQSGAELVRPGTSVKVSCKASGYAFTNYLIEWVKQRPGQGLEWIGLIYPGSGGTNYNEKFKGKATLTADKSSSTAYMQLSSLTSDDSAVYFCARIYYGNRDYGMDYWGQGTSVTVSS
VL: MTQTPLSLPVSLGDQASISCRSSQSIVHSNGNTYLEWYLQKPGQSPKLLIYKVSNRFSGVPDRFSGSGSGTDFTLKISRVEAEDLGVYYCFQGSHVPFTFGSGTKLEIK
notes: Mouse hybridoma antibody; Used as hybridoma supernatant in the screening and immunoprecipitation assays; also called mAb 5C9; antibody from hybridoma clone 5C9
Kd [3]: ~3.3 nM
